Experiment [1] has as its target T1, mouse IL-2Rγ endogenously expressed on MC/9 cells (mouse, UniProt P34902 23-369).
T1 construct: whole, on cells
T1 sequence (looked up): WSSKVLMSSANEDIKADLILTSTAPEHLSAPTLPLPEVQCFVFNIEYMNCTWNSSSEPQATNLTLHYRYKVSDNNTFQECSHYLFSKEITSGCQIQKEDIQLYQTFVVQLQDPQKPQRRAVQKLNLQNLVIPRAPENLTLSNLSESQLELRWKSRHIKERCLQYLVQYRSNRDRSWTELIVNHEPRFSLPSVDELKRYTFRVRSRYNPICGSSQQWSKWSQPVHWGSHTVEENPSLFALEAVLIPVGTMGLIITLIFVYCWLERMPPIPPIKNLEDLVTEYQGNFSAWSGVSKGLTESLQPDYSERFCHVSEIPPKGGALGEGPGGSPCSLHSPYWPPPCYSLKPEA
As to the kind of experiment: flow cytometry, 10 ug/ml antibody, MC/9 cells (endogenous mouse IL-2Rg). How it is done:
(§1) For flow cytometry analyses, the cells were pre-incubated with mouse IgG at 100 μg/ml for 15 minutes at room temperature (RT) to block the binding of the antibodies to Fc receptors. […] Cells were washed, fixed using BD CytoFix™ (BD biosciences, #554655) and analyzed on an IQue® (Intellicyt®) Flow Cytometer or Accuri Flow cytometer (BD). […] The results were analyzed using ForeCyt® (IntelliCyt®) software to determine the geometric means of fluorescence (MFI) for viable cells. Binding ratios were calculated by normalizing the MFI of the test sample by the MFI of the unstained sample.
A general note: A flow cytometer gives signals particle by particle.

Experiment [2] concerns the target T2, human IL-2Rγ endogenously expressed on NK-92 and Jurkat cells (human, UniProt P31785 23-369).
T2 construct: whole, on cells; on cells it stands with the other receptor subunits of the cell line; also called IL-2Rg; CD132
T2 sequence (looked up): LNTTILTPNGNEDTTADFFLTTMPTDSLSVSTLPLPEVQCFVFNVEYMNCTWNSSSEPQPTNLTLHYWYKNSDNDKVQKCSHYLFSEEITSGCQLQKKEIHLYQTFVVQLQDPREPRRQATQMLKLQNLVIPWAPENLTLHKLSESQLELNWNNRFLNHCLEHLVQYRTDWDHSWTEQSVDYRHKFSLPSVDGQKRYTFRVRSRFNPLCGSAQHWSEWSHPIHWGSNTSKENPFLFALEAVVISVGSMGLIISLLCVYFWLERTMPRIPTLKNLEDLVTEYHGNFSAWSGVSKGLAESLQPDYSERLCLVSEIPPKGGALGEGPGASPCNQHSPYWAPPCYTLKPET
Nature of the experiment: flow cytometry, 10 ug/ml antibody, Jurkat cells (endogenous human IL-2Rg). How it is done:
as §1

For experiment [3], the target named is T2, human IL-2Rγ endogenously expressed on …. Nature of the experiment: flow cytometry, 10 ug/ml antibody, NK-92 cells (endogenous human IL-2Rg). The method, then: as §1
The target of experiment [4] is T3, Rat IL2Rγ extracellular domain expressed with a C-terminal myc-myc-hexahistidine tag (rat).
T3 construct: whole entry is the tagged construct; also called rIL-2Rg-MMH; rat IL-2Rg-MMH
T3 chain: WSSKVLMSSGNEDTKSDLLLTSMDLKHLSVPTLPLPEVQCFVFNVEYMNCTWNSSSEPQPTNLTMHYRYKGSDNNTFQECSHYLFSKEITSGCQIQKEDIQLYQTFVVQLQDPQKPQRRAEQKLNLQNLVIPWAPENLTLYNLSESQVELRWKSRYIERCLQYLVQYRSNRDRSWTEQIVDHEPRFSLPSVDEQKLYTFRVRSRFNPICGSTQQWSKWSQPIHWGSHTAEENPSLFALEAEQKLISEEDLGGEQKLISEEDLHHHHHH
As to the kind of experiment: SPR Biacore 4000, anti-hFc-captured mAb, 37 C. An outline of the steps: (§2)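 HBS-ET running buffer (10 mM HEPES, 150 mM NaCl, 3 mM EDTA, 0.05% Tween-20, pH 7.4). mAb capture via anti-human Fc. Dissociation monitored 8-10 min. 1:1 kinetic fit; KD, t1/2 derived from ka/kd.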
For orientation: SPR reads the build-up and loss of mass on a sensor chip optically.

Experiment [5] addresses T4, Human IL2Rγ extracellular domain expressed with a C-terminal mouse IgG2a Fc tag (human).
T4 construct: whole entry is the Fc-fused construct; also called hIL-2Rg-mFc
T4 chain: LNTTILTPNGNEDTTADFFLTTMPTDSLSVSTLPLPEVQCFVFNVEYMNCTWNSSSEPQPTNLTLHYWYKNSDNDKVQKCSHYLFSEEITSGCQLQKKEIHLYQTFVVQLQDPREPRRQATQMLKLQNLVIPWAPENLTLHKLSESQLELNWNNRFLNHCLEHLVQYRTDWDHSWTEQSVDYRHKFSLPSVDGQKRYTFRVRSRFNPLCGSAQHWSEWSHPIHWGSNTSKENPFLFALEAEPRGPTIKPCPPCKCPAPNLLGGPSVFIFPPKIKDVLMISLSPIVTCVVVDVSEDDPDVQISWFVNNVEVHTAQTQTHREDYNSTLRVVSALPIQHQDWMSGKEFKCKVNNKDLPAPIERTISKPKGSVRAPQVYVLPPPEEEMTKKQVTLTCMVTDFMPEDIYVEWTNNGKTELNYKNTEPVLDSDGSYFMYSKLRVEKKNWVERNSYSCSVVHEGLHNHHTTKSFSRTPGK
As to the kind of experiment: SPR Biacore 4000, anti-hFc-captured mAb, 37 C. An outline of the steps:
as §2

Experiment [6] concerns the target T5, Macaca fascicularis IL2Rγ extracellular domain expressed with a C-terminal myc-myc-hexahistidine tag (Macaca fascicularis).
T5 construct: whole entry is the tagged construct; also called mfIL-2Rg-MMH
T5 chain: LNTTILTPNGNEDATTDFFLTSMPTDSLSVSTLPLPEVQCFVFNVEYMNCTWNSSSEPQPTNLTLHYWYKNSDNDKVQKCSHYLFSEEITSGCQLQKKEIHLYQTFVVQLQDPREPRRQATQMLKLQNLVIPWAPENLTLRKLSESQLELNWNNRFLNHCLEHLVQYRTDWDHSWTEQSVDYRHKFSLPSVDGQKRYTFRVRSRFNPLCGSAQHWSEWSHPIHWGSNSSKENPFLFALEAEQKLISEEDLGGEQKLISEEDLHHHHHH
As to the kind of experiment: SPR Biacore 4000, anti-hFc-captured mAb, 37 C. Summed up: as §2

In experiment [7] the target is T6, Mouse IL2Rγ extracellular domain expressed with a C-terminal myc-myc-hexahistidine tag (mouse).
T6 construct: whole entry is the tagged construct; also called mIL-2Rg-MMH
T6 chain: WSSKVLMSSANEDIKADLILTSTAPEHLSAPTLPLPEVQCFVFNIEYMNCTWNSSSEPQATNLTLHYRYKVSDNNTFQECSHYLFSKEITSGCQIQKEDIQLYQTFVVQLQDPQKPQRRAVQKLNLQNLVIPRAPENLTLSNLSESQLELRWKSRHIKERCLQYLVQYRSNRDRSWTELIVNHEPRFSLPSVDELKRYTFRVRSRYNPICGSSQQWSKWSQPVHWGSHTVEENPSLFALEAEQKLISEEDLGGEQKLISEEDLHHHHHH
Nature of the experiment: SPR Biacore 4000, anti-hFc-captured mAb, 37 C. Summed up:
as §2

The target of experiment [8] is T3, Rat IL2Rγ extracellular domain …. As to the kind of experiment: SPR Biacore 4000, anti-hFc-captured mAb, 25 C. Summed up: as §2
For experiment [9], the target named is T4, Human IL2Rγ extracellular domain …. As to the kind of experiment: SPR Biacore 4000, anti-hFc-captured mAb, 25 C. An outline of the steps: as §2
Experiment [10] addresses T6, Mouse IL2Rγ extracellular domain …. Nature of the experiment: SPR Biacore 4000, anti-hFc-captured mAb, 25 C. An outline of the steps: as §2

We go through six molecules from patent US20200247894A1 (Regeneron, published 2020).

The term Kd denotes the equilibrium constant for the complex coming apart. A lower Kd goes with tighter binding. Usually koff stands for the first-order rate constant of dissociation. High values mean fast dissociation, low ones slow dissociation. The kon is a measure of how fast the partners come together. Read a high kon as faster complex formation.

B1: H4H12859P (antibody, human IgG4 S228P, kappa, V domains shown)
VH: QVQLVQSGAEVKKPGASVRVSCKASGYTFTDYDIHWVRQAPGHGLEWMGWINPNSGGTNYAQKFQGRVTMTRDTSISTVYMDLSRLRSDDTAVYYCARADYSSSYYYYGMDVWGQGTTVTVSS
VL: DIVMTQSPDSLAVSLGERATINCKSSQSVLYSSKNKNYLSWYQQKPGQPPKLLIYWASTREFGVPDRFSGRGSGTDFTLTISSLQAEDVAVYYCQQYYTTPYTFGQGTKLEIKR
notes: fully human anti-IL2Rg antibody, human IgG4
Consider B1, for which the “Binding Ratio (Sample over unstained MFIs)” value (shortened to “Binding Ratio”) in experiment [1], in [2] and in [3] was 1 in each case. Moreover, the “Raw MFI” value amounted to 201 MFI in experiment [1], 89 MFI in experiment [2] and 176 MFI in experiment [3].

B2: H4H12874P (antibody, human IgG4 S228P, kappa, V domains shown)
VH: QVQLVESGGGVVQPGRSLRLSCAASGFNFRNFGMHWVRQAPGKGLEWVAGILYDGSSKYYADSVKDRFTISRDNSKNTLFLQMNSLRAEDTAMYYCAKEEDTAMVPFDSWGPGTLVTVSS
VL: DIQLTQSPSFLSASVGDRVTITCWASQGISSYLAWYQQKPGKAPTLLIYAASTLQSGVPSRFSGSGSGTEFTLTISSLQPEDFASYYCQQLKSYPLTFGGGTKVEIKR
notes: as for B1
B2: the “Binding Ratio” value is 1 in experiment [1], 6 in experiment [2] and 44 in experiment [3]. Moreover, the “Raw MFI” value in experiment [1] was determined as 202 MFI; in experiment [2] it was 507 MFI; in experiment [3], 6580 MFI.

B3: H4H12858P (antibody, human IgG4 S228P, kappa, V domains shown)
VH: EVQLVESGGDLVQPGGSLRLSCTASGFIFRNYAMNWVRQAPGKGLEWLSGILGSNDNTYYVDSVKGRFTISRDNSRNTLYLQMNSLRAEDSAVYYCAKGDAGGFDYWGQGTLVTVSS
VL: DVVMTQSPLSLPVILGQPASISCRSSQSLVSSDGNTYLNWFQQRPGQSPRRLIYKVSNRDSGVPDRFSGSGSGTDFTLKISRVEAEDVGAYYCMQGSYWPPTFGQGTKLEIKR
notes: fully human anti-IL2Rg antibody, human IgG4; also called REGN9433
In the case of B3, the “Binding Ratio” value in experiment [1] is 1; in experiment [2], 1; in experiment [3], 2. For the same molecule, the “Raw MFI” value in [1] was found to be 199 MFI; in [2], 99 MFI; in experiment [3] it was 228 MFI.

B4: H4H12863P (antibody, human IgG4 S228P, kappa, V domains shown)
VH: QVQLVESGGGVVQPGRSLRLSCTASGFTFRSYDMYWVRQAPGKGLEWVSVITYDGNNKYYADSVKGRFTISRDNSKNTLFLQMSSLRPEDTAVYYCAKRGLIWVGESFDYWGQGTLVTVSS
VL: DIQMTQSPSTLSASVGDRVTITCRASQSINSWLAWYQQKPGKAPNLLIYKASSLESGVPSRFSGSGSGTEFTLTISSLQPDDFATYYCQQYKSYSWTFGQGTKVEIKR
notes: as for B1
Regarding B4, the entries for the “Binding Ratio” value in experiment [1], in [2] and in [3] were 1, 13 and 87, respectively. Moreover, the “Raw MFI” value in [1] was found to be 185 MFI; in [2], 1170 MFI; in experiment [3] it was 13000 MFI.

B5: H4H13545P2 (antibody, human IgG4 S228P, kappa, V domains shown)
VH: QVQLQQSGPGLVKPSQTLSLTCDISGDSVSSNIATWNWIRQSPSRGLEWLGRTYYRSKWYKDYAVSVKSRITINPDTSKNQFSLQVNSVTPEDTAVYYCARMTGPRYYFEYWGQGTLVTVSS
VL: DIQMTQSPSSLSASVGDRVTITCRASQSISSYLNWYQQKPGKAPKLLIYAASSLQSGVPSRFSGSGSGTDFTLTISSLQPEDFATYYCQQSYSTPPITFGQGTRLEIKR
notes: fully human anti-IL2Rgamma mAb, human IgG4 Fc
On to B5, for which the “100 nM Ag Bound” value in experiment [4] came to 3 RU. Moreover, in experiment [5], the “50 nM Ag Bound” value worked out at 59 RU, the dissociation constant Kd is 30 nM, the koff came out at 0.00737 s⁻¹ and the kon was 246000 M⁻¹ s⁻¹. Moreover, the t1/2 in [5] is 1.6 min. In addition, in [6], the “100 nM Ag Bound” value was 21 RU, binding was put at a Kd of 88.6 nM, the koff came to 0.0129 s⁻¹ and the kon was found to be 146000 M⁻¹ s⁻¹. For the same molecule, the t1/2 in [6] came out at 0.9 min. Also, the “100 nM Ag Bound” value in experiment [7] stood at 2 RU. Moreover, in experiment [8], the “100 nM Ag Bound” value stood at 4 RU and the binding result is “no binding (tested: 100 nM)”. In experiment [9], the “50 nM Ag Bound” value turned out to be 64 RU, binding was characterised by a dissociation constant (Kd) of 12 nM, the koff turned out to be 0.00211 s⁻¹ and the kon came to 175000 M⁻¹ s⁻¹. Also, the t1/2 in [9] is 5 min. In experiment [10], the “100 nM Ag Bound” value came out at 4 RU and the binding result is “no binding (tested: 100 nM)”.

B6: H4H12871P (antibody, human IgG4 S228P, kappa, V domains shown)
VH: QVQLQESGPGLVKPSQTLSLTCTVSGGSITSGGYYWSWIRQYPGQGLEWIGYIYYSGKTYYNPSFTSRITISVDTSKKQFSLKMSSVTAADTAVYYCARAGFTSSNGWFDPWGQGTLVTVSS
VL: DIQMTQSPSSLSASVGDRVTITCRASQNIRSYLNWYQQKPGKAPKLLIYSASSLQSGVPSRFSGSGSGTDFTLTISSLQPEDFPTYYCQQTYSSPWTFGPGTKVEIKR
notes: fully human anti-IL2Rg antibody, human IgG4; also called REGN9434
With B6, the entries for the “Binding Ratio” value in [1], in experiment [2] and in [3] were 1, 18 and 92, respectively. In addition, the “Raw MFI” value in experiment [1] was 184 MFI; in experiment [2], 1620 MFI; in experiment [3] it was 13700 MFI.
